Source: publication PMC9060471, “Oleic acid is an endogenous ligand of TLX/NR2E1 that triggers hippocampal neurogenesis” (Proceedings of the National Academy of Sciences of the …, 2022)

Target: T1, 6xHis-TLX ligand-binding domain (UniProt Q9Y466 155-385)
T1 construct: Construct limits, species and expression host should stand in the SI Appendix (methods); also called TLX LBD; NR2E1; source: purified
Experiment: AlphaScreen or HTRF; ALPHA competition experiments in the presence of saturating 18:1ω9
Conditions: both partners purified

T1 sequence (Q9Y466 155-385): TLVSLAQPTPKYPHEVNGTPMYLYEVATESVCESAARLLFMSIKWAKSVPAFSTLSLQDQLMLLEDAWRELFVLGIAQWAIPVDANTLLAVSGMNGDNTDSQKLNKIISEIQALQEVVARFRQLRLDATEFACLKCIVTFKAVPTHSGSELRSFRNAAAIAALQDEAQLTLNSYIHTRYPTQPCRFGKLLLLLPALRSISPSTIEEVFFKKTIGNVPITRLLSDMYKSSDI

- EC50 with 18:1ω9: 3.3 µM
B1: receptor-interaction domain from NCOA3 (domain or fragment, UniProt Q9Y6Q9 621-821, looked up)
chain: LLQLLTCSSDDRGHSSLTNSPLDSSCKESSVSVTSPSGVSSSTSGGVSSTSNMHGSLLQEKHRILHKLLQNGNSPAEVAKITAEATGKDTSSITSCGDGNVVKQEQLSPKKKENNALLRYLLDRDDPSDALSKELQPQVEGVDNKMSQCTSSTIPSSSQEKDPKIKTETSEEGSGDLDNLDAILGDLTSSDFYNNSISSNG
notes: The methods name an AlphaScreen GST Detection Kit, so a GST fusion may have been used somewhere; see SI Appendix; also called SRC3
